Measured values taken from PMC7179120.
pKd: −log10 of the molar value.

Experiments:
Test in all cases: other fluorescence titration; microplate-based binding assay (HI-FI) with Alexa-488-labelled Sod1 and Ccs; 20 mM Tris pH 7.5, 150 mM NaCl, 1 mM TCEP; plates imaged on a Typhoon FLA 9500; quadruplicate; apparent dissociation constants
[1] = biological target: human Sod1 A4V/C146S, metal-free, disulfide reduced, labelled with Alexa-488 at C57 (human)
[2] = biological target: human Sod1 G85R/C146S, metal-free, disulfide reduced, labelled with Alexa-488 at C57 (human)
[3] = biological target: human Sod1 G93A/C146S, metal-free, disulfide reduced, labelled with Alexa-488 at C57 (human)
[4] = biological target: human Sod1 H80R/C146S, metal-free, disulfide reduced, labelled with Alexa-488 at C57 (human)

How did the pKd [1] turn out when “human copper chaperone for Sod1 (Ccs) (natural protein)” was run?
The pKd was 7.38.

And the pKd [2]?
Its pKd is 7.45.

What about the pKd [3] of the same substance?
Its pKd is 7.48.

And the pKd [4]?
The pKd was 7.17.
